Three molecules from publication PMC8175722 can be followed below.

Bounds are passed on as bounds.

Test [1] addresses mannosylated surface IgM (sIgM-Mann) of the FL-derived cell line WSU-FSCCL (human (endogenous in WSU-FSCCL)) (UniProt P01871).
In test [2] the target is DC-SIGN-HA (DC-SIGN fused to the HA epitope tag) (UniProt Q9NNX6). Description: SEC; analytical gel filtration of recombinant DC-SIGN-Fc and DC-SIGN-HA; data not shown; the high Stokes radius prevented a more accurate measurement of molecular mass.
In test [3] the target is mannosylated surface IgM (sIgM-Mann) of the FL-derived cell line WSU-FSCCL (human (endogenous in WSU-FSCCL)) (UniProt P01871). The source holds these as a separate data set.
In test [4] the target is T1, DC-SIGN-Fc (recombinant DC-SIGN fused to Fc), Q9NNX6.
T1 chain: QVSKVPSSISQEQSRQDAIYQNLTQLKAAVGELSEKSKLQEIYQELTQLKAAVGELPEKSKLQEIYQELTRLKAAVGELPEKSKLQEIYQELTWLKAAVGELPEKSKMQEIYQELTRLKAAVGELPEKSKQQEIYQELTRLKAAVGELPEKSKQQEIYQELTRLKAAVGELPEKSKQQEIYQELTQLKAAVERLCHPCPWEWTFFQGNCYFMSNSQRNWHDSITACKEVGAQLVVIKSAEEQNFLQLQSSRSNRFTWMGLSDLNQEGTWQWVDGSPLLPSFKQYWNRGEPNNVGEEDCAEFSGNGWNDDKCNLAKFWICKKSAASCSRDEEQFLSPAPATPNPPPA
Description: SEC; analytical gel filtration of recombinant DC-SIGN-Fc and DC-SIGN-HA; data not shown; the high Stokes radius prevented a more accurate measurement of molecular mass. Conditions: remark: other sources report otherwise.

UniProt P01871, sequence (P01871 whole entry, looked up, the tested form may be a part): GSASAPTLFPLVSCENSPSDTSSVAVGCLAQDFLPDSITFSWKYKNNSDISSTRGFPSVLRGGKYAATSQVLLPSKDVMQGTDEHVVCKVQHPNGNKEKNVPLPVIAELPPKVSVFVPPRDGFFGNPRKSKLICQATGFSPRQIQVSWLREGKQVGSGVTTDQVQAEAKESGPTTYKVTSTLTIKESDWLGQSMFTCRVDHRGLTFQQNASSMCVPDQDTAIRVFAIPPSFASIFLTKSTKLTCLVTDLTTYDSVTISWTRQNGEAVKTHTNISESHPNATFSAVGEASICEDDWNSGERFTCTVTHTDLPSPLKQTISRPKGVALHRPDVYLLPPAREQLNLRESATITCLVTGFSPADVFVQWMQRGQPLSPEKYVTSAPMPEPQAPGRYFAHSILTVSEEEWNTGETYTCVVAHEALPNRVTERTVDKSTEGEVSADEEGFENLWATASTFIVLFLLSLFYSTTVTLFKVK

Molecule “DC-SIGN-HA (DC-SIGN fused to the HA epitope tag) (from UniProt Q9NNX6 1-404) (natural protein)” returned an inhibition of the anti-IgM-induced iCa2+ flux in WSU-FSCCL cells after pre-exposure to DC-SIGN-HA in test [1] of 50%. In test [2], the stoichiometry N was more than 4. In turn, “DC-SIGN-Fc (recombinant DC-SIGN fused to Fc) (from UniProt Q9NNX6 59-404) (Fc fusion)” had an inhibition of the anti-IgM-induced iCa2+ flux in WSU-FSCCL cells after pre-exposure to DC-SIGN-Fc in test [1] of 80%. In test [3], this molecule displayed a recovery of the anti-IgM-induced iCa2+ response in WSU-FSCCL cells after removal of pre-bound DC-SIGN-Fc with mannan (15 or 30 min at 37 °C) of 50%.

B1: DC-SIGN-Fc (recombinant DC-SIGN fused to Fc), Q9NNX6 59-404 (Fc fusion)
chain: T1 chain
Take B1: in test [4], the stoichiometry N is more than 4.
